Results as given in the supplement of paper PMC10899765.

Legend:
Conditions in all cases: 20 nM; 72 h
MCF10A [1] = assay: percent viability (nuclei count relative to siNT); higher = more viable cells
Description: (§1)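 After 72 h, cells were fixed and stained with Hoechst and anti-fibrillarin, and nucleoli per nucleus were counted with CellProfiler. Values are plate-adjusted percent effect for the one-nucleolus and 5+ nucleoli phenotypes, normalised to siNT (0%) and to the positive controls siNOL11 or siKIF11 (100%), as the mean of biological triplicates. Percent viability is the nuclei count relative to siNT.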

MCF10A [2] = assay: 5+ nucleoli phenotype percent effect (relative to siNT 0% and siKIF11 100%); higher = more cells with five or more nucleoli
Description: as §1

MCF10A [3] = assay: one-nucleolus phenotype percent effect (relative to siNT 0% and siNOL11 100%); higher = more cells with one nucleolus (ribosome biogenesis inhibition)
Description: as §1

Sequence	percent viability (MCF10A [1]) [%]	5+ nucleoli phenotype percent effect (MCF10A [2]) [%]	one-nucleolus phenotype percent effect (MCF10A [3]) [%]
AACUAGCUCUGUGGAUCCUGAC [hsa-miR-4661-5p]	13.9	-18.4	21.8
AACUAGUAAUGUUGGAUUAGGG [hsa-miR-3923]	21.9	-20.8	43.2
AACUCACGAAGUAUACCGAAGU [hsa-miR-4798-3p]	48.2	11.4	-1.81
AACUCCAAACACUCAAAACUCA [hsa-miR-3145-5p]	119	43.6	-24.6
AACUCGUGUUCAAAGCCUUUAG [hsa-miR-4636]	53.6	12.8	8.89
AACUCUAGCCUGAGCAACAG [hsa-miR-5684]	40.5	-2.91	2.62
AACUCUGACCCCUUAGGUUGAU [hsa-miR-4714-5p]	41.1	-16.1	-5.26
AACUCUGUCUUCACUCAUGAGU [hsa-miR-3664-5p]	60.5	6.12	-2.78
AACUGAACCAGGAGUGAGCUUCG [hsa-miR-4724-5p]	77.9	-1.37	6.7
AACUGGAUCAAUUAUAGGAGUG [hsa-miR-1243]	174	53.3	-29.3
AACUGGCCCUCAAAGUCCCGCU [hsa-miR-193b-3p]	16.9	-6.55	24.4
AACUGGCCUACAAAGUCCCAGU [hsa-miR-193a-3p]	21.9	-15.2	29.5
AACUGUUUGCAGAGGAAACUGA [hsa-miR-452-5p]	103	28.4	-22.3
AAGAAGAGACUGAGUCAUCGAAU [hsa-miR-5197-3p]	24.8	26.1	-5.79
AAGACGGGAGGAAAGAAGGGAG [hsa-miR-483-5p]	51.5	-31.8	19.1
AAGACUGAGAGGAGGGA [hsa-miR-4499]	123	3.14	-14
AAGAGAACUGAAAGUGGAGCCU [hsa-miR-3925-5p]	49.5	-8.02	-13
AAGAGAGGAGCAGUGGUGCUGUGG [hsa-miR-6856-5p]	52.1	-5.13	0.793
AAGAGGAAGAAAUGGCUGGUUCUCAG [hsa-miR-3916]	14	-13.2	-5.24
AAGAUGUGGAAAAAUUGGAAUC [hsa-miR-576-3p]	48	-7.01	17.9
AAGCAAUACUGUUACCUGAAAU [hsa-miR-3942-5p]	36.6	13.9	-6.02
AAGCAGCAGUGGCAAGACUCCU [hsa-miR-6838-5p]	24.7	-35.6	31.1
AAGCAUUCUUUCAUUGGUUGG [hsa-miR-1179]	98.7	0.87	1.48
AAGCCCUGUCUCCUCCCAUCU [hsa-miR-6779-3p]	68.1	-41.9	9.83
